Where two headings read alike, the source gives them in different places.
Experiments:
[1] = target: AP1-mV reporter in Arabidopsis flowers (Arabidopsis thaliana) (UniProt P35631); experiment: FRET or BRET; FLIM-FRET (OPA) in young flowers of stable A. thaliana lines; donor AP1-mV, acceptor AP1-mCh or PI-mCh, endogenous promoters, F1 plants; only nuclei with donor and acceptor
[2] = target: … (PI) fused to mVenus, expressed in N. benthamiana (Arabidopsis thaliana) (UniProt P48007); experiment: FRET or BRET; FLIM-FRET with one pattern analysis (OPA) in nuclei of transiently expressing N. benthamiana leaf epidermis cells; donor mVenus fusion, acceptor mCherry fusion; BINDING = relative amplitude of the FRET fraction; nucleoli excluded; FRET efficiency only for nuclei with BINDING above 10%
… (PI) fused to mVenus, expressed in N. benthamiana (Arabidopsis thaliana), sequence (P48007 whole entry, the tested form may be a part): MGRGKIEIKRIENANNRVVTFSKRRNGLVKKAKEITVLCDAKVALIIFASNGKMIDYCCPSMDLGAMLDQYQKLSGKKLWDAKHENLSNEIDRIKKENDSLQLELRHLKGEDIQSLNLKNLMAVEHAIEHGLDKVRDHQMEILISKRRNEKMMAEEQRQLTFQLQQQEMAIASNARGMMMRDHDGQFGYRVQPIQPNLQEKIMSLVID

[3] = target: APETALA3 (AP3) fused to mVenus, expressed in N. benthamiana (Arabidopsis thaliana) (UniProt P35632); experiment: as above
APETALA3 (AP3) fused to mVenus, expressed in N. benthamiana (Arabidopsis thaliana), sequence (P35632 whole entry, the tested form may be a part): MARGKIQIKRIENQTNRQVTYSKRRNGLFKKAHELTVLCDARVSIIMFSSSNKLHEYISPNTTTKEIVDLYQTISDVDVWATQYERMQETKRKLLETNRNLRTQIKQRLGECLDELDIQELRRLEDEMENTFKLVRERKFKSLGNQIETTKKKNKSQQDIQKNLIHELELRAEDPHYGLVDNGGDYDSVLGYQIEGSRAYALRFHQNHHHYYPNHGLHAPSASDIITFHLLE

[4] = target: APETALA1 (AP1) fused to mVenus, expressed in N. benthamiana (Arabidopsis thaliana) (UniProt P35631); experiment: as above
APETALA1 (AP1) fused to mVenus, expressed in N. benthamiana (Arabidopsis thaliana), sequence (P35631 whole entry, the tested form may be a part): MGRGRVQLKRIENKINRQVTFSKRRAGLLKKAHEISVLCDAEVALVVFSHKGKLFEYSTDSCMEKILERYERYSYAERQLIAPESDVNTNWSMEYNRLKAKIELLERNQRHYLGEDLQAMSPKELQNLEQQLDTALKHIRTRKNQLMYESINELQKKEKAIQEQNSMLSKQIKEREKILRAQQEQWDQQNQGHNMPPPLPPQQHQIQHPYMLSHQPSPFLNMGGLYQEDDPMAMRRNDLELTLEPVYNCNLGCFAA

[5] = target: APETALA1 (AP1) fused to mVenus, expressed in N. benthamiana (Arabidopsis thaliana) (UniProt P35631); experiment: as above; remark: listed apart in the source
[6] = target: APETALA1 (AP1) fused to mVenus, expressed in N. benthamiana (Arabidopsis thaliana) (UniProt P35631); experiment: as above; remark: listed apart in the source

APETALA1 (AP1) fused to mVenus, expressed in N. benthamiana, P35631 1-256 (natural protein; other documents disagree on this pair), sequence (P35631 whole entry, the tested form may be a part): as above
AP1-mV reporter in Arabidopsis flowers, P35631 1-256 (natural protein; other documents disagree on this pair), sequence (P35631 whole entry): as the sequence (P35631 whole entry, the tested form may be a part) above

Substance | BINDING [2] [%] | FRET efficiency [2] [%] | BINDING [3] [%] | FRET efficiency [3] [%] | BINDING [5] [%] | FRET efficiency [5] [%] | also measured
AP1-mV reporter in Arabidopsis flowers, P35631 1-256 (natural protein; other documents disagree on this pair) | – | – | – | – | – | – | BINDING [1]: 8.59%; FRET efficiency [1]: 56.7%
APETALA1 (AP1) fused to mCherry, expressed in N. benthamiana (from UniProt P35631 1-256) (natural protein) | 16.1 | 41.5 | 16.5 | 43.6 | – | – | –
APETALA1 (AP1) fused to mVenus, expressed in N. benthamiana, P35631 1-256 (natural protein; other documents disagree on this pair) | – | – | – | – | 29.9 | 39 | BINDING [4]: 19.2%; FRET efficiency [6]: 40%
APETALA3 (AP3) fused to mCherry, expressed in N. benthamiana (from UniProt P35632 1-232) (natural protein) | 36 | 38 | – | – | – | – | –
…3 (SEP3) fused to mCherry, expressed in N. benthamiana (from UniProt O22456 1-251) (natural protein) | – | – | – | – | 36.1 | 42.6 | –
… (PI) fused to mCherry, expressed in N. benthamiana (from UniProt P48007 1-208) (natural protein) | – | – | 35.2 | 38 | – | – | –

Reference: paper PMC10375638
